The record followed here is publication PMC7360590, “Structural basis of SALM3 dimerization and synaptic adhesion complex formation with PTPσ” (Scientific Reports, 2020).

Data set [1] has as its target purified SALM3 Thr354Arg-Glu359Ala mutant protein (mouse). As to the kind of experiment: not stated; oligomeric state in solution of purified SALM3 double mutants against the wild type (Supplementary Fig. S8).
For data set [2], the target named is purified SALM3 Leu282Arg-Arg285Ala mutant protein (mouse). Described as above.
Data set [3] deals with the molecule itself. As to the kind of experiment: SEC-MALS; SEC–MALLS; Superdex 75 10/300, 0.5 ml/min, 20 mM Tris pH 7.4, 150 mM NaCl; 100 µL injected at 1.5 mg/ml (conditions told for the LRR construct). In general terms: Size exclusion chromatography separates by hydrodynamic size, large species first.
For data set [4], the target named is T1, PTPσ-Fc fusion protein, B0V2N1.
T1 chain: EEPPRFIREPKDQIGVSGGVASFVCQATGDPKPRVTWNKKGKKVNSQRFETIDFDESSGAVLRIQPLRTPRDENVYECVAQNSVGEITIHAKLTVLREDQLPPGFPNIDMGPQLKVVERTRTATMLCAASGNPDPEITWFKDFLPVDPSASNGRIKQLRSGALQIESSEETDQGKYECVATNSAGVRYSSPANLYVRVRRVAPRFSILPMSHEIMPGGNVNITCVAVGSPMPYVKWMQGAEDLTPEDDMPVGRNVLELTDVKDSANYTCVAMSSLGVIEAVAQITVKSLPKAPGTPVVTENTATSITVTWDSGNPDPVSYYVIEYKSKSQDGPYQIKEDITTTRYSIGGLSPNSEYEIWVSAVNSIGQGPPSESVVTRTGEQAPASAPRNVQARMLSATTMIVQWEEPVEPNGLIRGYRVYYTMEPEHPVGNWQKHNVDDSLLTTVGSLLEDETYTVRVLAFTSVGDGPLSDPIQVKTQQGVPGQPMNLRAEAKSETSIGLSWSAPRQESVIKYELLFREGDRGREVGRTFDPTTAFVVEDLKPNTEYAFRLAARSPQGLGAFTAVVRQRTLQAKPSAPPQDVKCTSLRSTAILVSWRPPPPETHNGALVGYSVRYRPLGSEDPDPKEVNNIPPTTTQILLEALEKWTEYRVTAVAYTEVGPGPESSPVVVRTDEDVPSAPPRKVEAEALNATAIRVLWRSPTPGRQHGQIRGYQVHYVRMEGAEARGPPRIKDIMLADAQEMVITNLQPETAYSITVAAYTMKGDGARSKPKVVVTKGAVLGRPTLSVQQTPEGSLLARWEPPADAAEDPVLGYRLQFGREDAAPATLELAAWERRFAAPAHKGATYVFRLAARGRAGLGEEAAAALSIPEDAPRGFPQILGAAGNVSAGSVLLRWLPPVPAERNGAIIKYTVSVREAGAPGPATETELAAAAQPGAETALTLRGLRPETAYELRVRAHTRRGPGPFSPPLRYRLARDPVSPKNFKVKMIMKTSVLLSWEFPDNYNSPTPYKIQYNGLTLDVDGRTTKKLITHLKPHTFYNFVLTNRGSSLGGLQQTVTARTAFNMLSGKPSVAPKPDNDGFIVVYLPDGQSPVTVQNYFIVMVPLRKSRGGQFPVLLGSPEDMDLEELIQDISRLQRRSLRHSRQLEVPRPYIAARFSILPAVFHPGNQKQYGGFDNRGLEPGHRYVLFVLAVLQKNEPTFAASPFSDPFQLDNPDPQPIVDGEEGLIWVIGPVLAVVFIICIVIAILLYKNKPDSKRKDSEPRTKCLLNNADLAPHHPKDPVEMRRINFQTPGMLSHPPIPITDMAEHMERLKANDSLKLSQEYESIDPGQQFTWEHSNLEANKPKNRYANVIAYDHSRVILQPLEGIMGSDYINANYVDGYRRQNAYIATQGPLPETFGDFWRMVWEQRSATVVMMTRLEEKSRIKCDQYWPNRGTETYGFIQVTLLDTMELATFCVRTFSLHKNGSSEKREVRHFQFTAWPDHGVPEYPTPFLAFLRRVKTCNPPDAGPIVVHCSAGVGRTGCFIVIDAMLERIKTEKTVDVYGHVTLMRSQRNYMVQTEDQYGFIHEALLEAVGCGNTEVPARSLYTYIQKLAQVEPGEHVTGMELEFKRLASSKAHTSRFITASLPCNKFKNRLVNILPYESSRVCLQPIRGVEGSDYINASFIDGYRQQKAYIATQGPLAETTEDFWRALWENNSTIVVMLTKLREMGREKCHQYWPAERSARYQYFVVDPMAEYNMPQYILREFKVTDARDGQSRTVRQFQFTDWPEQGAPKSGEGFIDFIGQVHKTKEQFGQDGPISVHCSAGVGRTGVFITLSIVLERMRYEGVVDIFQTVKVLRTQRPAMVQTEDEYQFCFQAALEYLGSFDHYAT
As to the kind of experiment: in-cell western cell binding assay. The conditions noted are these: chain shown with the change; 150 nM PTPσ-Fc; SALM3 expressed on the surface of HEK293T cells; parent: est. 49000; read off a plot.

Usually stoichiometry N stands for the number of molecules, sites or subunits per partner or assembly. The molecule “purified SALM3 Thr354Arg-Glu359Ala mutant protein (domain or fragment)” came in with a stoichiometry N in data set [1] of 2.

Take “purified SALM3 Leu282Arg-Arg285Ala mutant protein (domain or fragment)”: the stoichiometry N in data set [2] came to 2.

B1: SALM3 LRR-Ig (residues 17–367) (domain or fragment, mouse, UniProt Q80XU8 17-367, looked up)
chain: CPLPCVCQNLSESLSTLCAHRGLLFVPPNVDRRTVELRLADNFIQALGPPDFRNMTGLVDLTLSRNAITRIGARSFGDLESLRSLHLDGNRLVELGSSSLRGPVNLQHLILSGNQLGRIAPGAFDDFLDSLEDLDVSYNNLRQVPWAGIGSMPALHTLNLDHNLIDALPPGVFAQLSQLSRLDLTSNRLATLAPDPLFSRGRDAEASPSPLVLSFSGNPLHCNCELLWLRRLARPDDLETCASPPTLAGRYFWAVPEGEFSCEPPLIARHTQRLWVLEGQRATLRCRALGDPVPTMHWVGPDDRLVGNSSRAWAFPNGTLEIGVTGAGDAGAYTCIATNPAGEATARVELR
notes: SALM3 (LRFN4), mouse, LRR and Ig domains, residues 17-367; also called SALM3 LRR-Ig construct; source: purified
Regarding B1, in data set [3], the “stoichiometry N” value came to 2.

B2: Mouse SALM3 LRR (residues 17–284) (domain or fragment, UniProt Q80XU8 17-284, looked up)
chain: CPLPCVCQNLSESLSTLCAHRGLLFVPPNVDRRTVELRLADNFIQALGPPDFRNMTGLVDLTLSRNAITRIGARSFGDLESLRSLHLDGNRLVELGSSSLRGPVNLQHLILSGNQLGRIAPGAFDDFLDSLEDLDVSYNNLRQVPWAGIGSMPALHTLNLDHNLIDALPPGVFAQLSQLSRLDLTSNRLATLAPDPLFSRGRDAEASPSPLVLSFSGNPLHCNCELLWLRRLARPDDLETCASPPTLAGRYFWAVPEGEFSCEPPLIA
modifications: N-glycan at Asn25 (partly visible in one monomer)
notes: SALM3 (LRFN4), mouse, LRR domain, residues 17-284; residues of the Prescission site may remain at the C-terminus after cleavage; also called SALM3 LRR domain; SALM3 LRR construct; not shown: Fc, C-terminal, cleaved
Consider B2, for which, in data set [3], the “stoichiometry N” value worked out at 2.

B3: mouse SALM3 LRR-Ig-Fn (residues 17–510), wild type, displayed on HEK293T cells, Q80XU8 L282R; R285A (protein)
chain: CPLPCVCQNLSESLSTLCAHRGLLFVPPNVDRRTVELRLADNFIQALGPPDFRNMTGLVDLTLSRNAITRIGARSFGDLESLRSLHLDGNRLVELGSSSLRGPVNLQHLILSGNQLGRIAPGAFDDFLDSLEDLDVSYNNLRQVPWAGIGSMPALHTLNLDHNLIDALPPGVFAQLSQLSRLDLTSNRLATLAPDPLFSRGRDAEASPSPLVLSFSGNPLHCNCELLWLRRLARPDDLETCASPPTLAGRYFWAVPEGEFSCEPPRIAAHTQRLWVLEGQRATLRCRALGDPVPTMHWVGPDDRLVGNSSRAWAFPNGTLEIGVTGAGDAGAYTCIATNPAGEATARVELRVLALPHGGNTSAEGGRPGPSDIAASARTAAEGEGTLESEPAVQVTEVTATSGLVSWGLGRPADPVWMFQIQYNSSEDETLIYRIVPASSHHFLLKHLVPGADYDLCLLALSPAAGPSDLTATRLLGCAHFSTLPATPLCHALQ
For the molecule B3, the response in data set [4] was found to be 2500.

B4: mouse SALM3 LRR-Ig-Fn (residues 17–510), wild type, displayed on HEK293T cells, Q80XU8 L321A; H313A (protein)
chain: CPLPCVCQNLSESLSTLCAHRGLLFVPPNVDRRTVELRLADNFIQALGPPDFRNMTGLVDLTLSRNAITRIGARSFGDLESLRSLHLDGNRLVELGSSSLRGPVNLQHLILSGNQLGRIAPGAFDDFLDSLEDLDVSYNNLRQVPWAGIGSMPALHTLNLDHNLIDALPPGVFAQLSQLSRLDLTSNRLATLAPDPLFSRGRDAEASPSPLVLSFSGNPLHCNCELLWLRRLARPDDLETCASPPTLAGRYFWAVPEGEFSCEPPLIARHTQRLWVLEGQRATLRCRALGDPVPTMAWVGPDDRAVGNSSRAWAFPNGTLEIGVTGAGDAGAYTCIATNPAGEATARVELRVLALPHGGNTSAEGGRPGPSDIAASARTAAEGEGTLESEPAVQVTEVTATSGLVSWGLGRPADPVWMFQIQYNSSEDETLIYRIVPASSHHFLLKHLVPGADYDLCLLALSPAAGPSDLTATRLLGCAHFSTLPATPLCHALQ
With B4, in data set [4], the response is 2800.

B5: mouse SALM3 LRR-Ig-Fn (residues 17–510), wild type, displayed on HEK293T cells, Q80XU8 R247A (protein)
chain: CPLPCVCQNLSESLSTLCAHRGLLFVPPNVDRRTVELRLADNFIQALGPPDFRNMTGLVDLTLSRNAITRIGARSFGDLESLRSLHLDGNRLVELGSSSLRGPVNLQHLILSGNQLGRIAPGAFDDFLDSLEDLDVSYNNLRQVPWAGIGSMPALHTLNLDHNLIDALPPGVFAQLSQLSRLDLTSNRLATLAPDPLFSRGRDAEASPSPLVLSFSGNPLHCNCELLWLRALARPDDLETCASPPTLAGRYFWAVPEGEFSCEPPLIARHTQRLWVLEGQRATLRCRALGDPVPTMHWVGPDDRLVGNSSRAWAFPNGTLEIGVTGAGDAGAYTCIATNPAGEATARVELRVLALPHGGNTSAEGGRPGPSDIAASARTAAEGEGTLESEPAVQVTEVTATSGLVSWGLGRPADPVWMFQIQYNSSEDETLIYRIVPASSHHFLLKHLVPGADYDLCLLALSPAAGPSDLTATRLLGCAHFSTLPATPLCHALQ
For B5, the response in data set [4] stood at 2500.

B6: mouse SALM3 LRR-Ig-Fn (residues 17–510), wild type, displayed on HEK293T cells, Q80XU8 R107S; Q131A (protein)
chain: CPLPCVCQNLSESLSTLCAHRGLLFVPPNVDRRTVELRLADNFIQALGPPDFRNMTGLVDLTLSRNAITRIGARSFGDLESLRSLHLDGNSLVELGSSSLRGPVNLQHLILSGNALGRIAPGAFDDFLDSLEDLDVSYNNLRQVPWAGIGSMPALHTLNLDHNLIDALPPGVFAQLSQLSRLDLTSNRLATLAPDPLFSRGRDAEASPSPLVLSFSGNPLHCNCELLWLRRLARPDDLETCASPPTLAGRYFWAVPEGEFSCEPPLIARHTQRLWVLEGQRATLRCRALGDPVPTMHWVGPDDRLVGNSSRAWAFPNGTLEIGVTGAGDAGAYTCIATNPAGEATARVELRVLALPHGGNTSAEGGRPGPSDIAASARTAAEGEGTLESEPAVQVTEVTATSGLVSWGLGRPADPVWMFQIQYNSSEDETLIYRIVPASSHHFLLKHLVPGADYDLCLLALSPAAGPSDLTATRLLGCAHFSTLPATPLCHALQ
Take B6: in data set [4], the response is 2800.

B7: mouse SALM3 LRR-Ig-Fn (residues 17–510), wild type, displayed on HEK293T cells, Q80XU8 R285A; L305A (protein)
chain: CPLPCVCQNLSESLSTLCAHRGLLFVPPNVDRRTVELRLADNFIQALGPPDFRNMTGLVDLTLSRNAITRIGARSFGDLESLRSLHLDGNRLVELGSSSLRGPVNLQHLILSGNQLGRIAPGAFDDFLDSLEDLDVSYNNLRQVPWAGIGSMPALHTLNLDHNLIDALPPGVFAQLSQLSRLDLTSNRLATLAPDPLFSRGRDAEASPSPLVLSFSGNPLHCNCELLWLRRLARPDDLETCASPPTLAGRYFWAVPEGEFSCEPPLIAAHTQRLWVLEGQRATLRCRAAGDPVPTMHWVGPDDRLVGNSSRAWAFPNGTLEIGVTGAGDAGAYTCIATNPAGEATARVELRVLALPHGGNTSAEGGRPGPSDIAASARTAAEGEGTLESEPAVQVTEVTATSGLVSWGLGRPADPVWMFQIQYNSSEDETLIYRIVPASSHHFLLKHLVPGADYDLCLLALSPAAGPSDLTATRLLGCAHFSTLPATPLCHALQ
As to B7, the response in data set [4] worked out at 4000.
